This is an account of results in the supplement of paper PMC6755084.

The labels stand for the following.
B1: minF1; the commonest letter at each place (parent)
chain: GAGACCGCAACTGAAAAGTTGTTATCAGAAATGGATGGGTTGAATTTCTGCACGTAGAAGCAAAAGGC

In the data set the parent is B1. Kind of data set: fraction ligated after 30 min (ligated reads / total reads); higher = more ligase activity. To be noted: with F1*subA RNA substrate (template-directed ligation), 42 °C. As to the method: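 Chip-synthesised pool of minF1 ligase ribozyme variants (single and double substitutions, single to quadruple deletions, bulge and P2 designed variants) was transcribed with T7 and reacted as a pool with excess substrate F1*subA for 30 min at 42 C in 50 mM EPPS pH 8.5, 25 mM MgCl2. Ligated and unligated RNAs were separated by PAGE, barcoded by RT and deep sequenced; fraction ligated = ligated reads / total reads, relative activity = FL / FL of wild-type minF1 (0.76); sequencing FL correlated with PAGE (R2 = 0.98). Sequences are the DNA template of the ribozyme.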
As for GAGACCGCAACTGAAAAGTTGTGATCAGAAATGGAGGGGTTGAATTTCTGCACGTAGAAGCAAAAGGC [T23G T36G], the fraction ligated turned out to be 0.061.
With GAGACCGCAACTGAAAAGTTGTTATGAGAAATGGATGGGTTGAGTTTCTGCACGTAGAAGCAAAAGGC [C26G A44G], the fraction ligated worked out at 0.0117.
The value for GAGACCGCAACTGAAAAGTTGTTATCAGAAATGGACGGGTTCAATTTCTGCACGTAGAAGCAAAAGGC [T36C G42C] was 0.00306; that for GAGACCGCAACTGAAAAGTTGTTAACAGAAATGGATGGGTTGTATTTCTGCACGTAGAAGCAAAAGGC [T25A A43T] was 0.00628; that for GAGACCGCAACTGAAAAGTTGTAATCACAAATGGATGGGTTGAATTTCTGCACGTAGAAGCAAAAGGC [T23A G28C] was 0.132.
For GAGACCGCAACTGAAAAGTTGTTATCTGAAATGGATTGGTTGAATTTCTGCACGTAGAAGCAAAAGGC [A27T G37T], the fraction ligated amounted to 0.0547.
The same measure for GAGACCGCAACTGAAAAGTTGTACTCAGAAATGGATGGGTTGAATTTCTGCACGTAGAAGCAAAAGGC [T23A A24C]: 0.0188; for GAGACCGCAACTGAAAAGTTGTTATCAGAAATAGATGGGTTAAATTTCTGCACGTAGAAGCAAAAGGC [G33A G42A]: 0.228.
For GAGACCGCAACTGAAAAGTTGTTATTAGAAATGGACGGGTTGAATTTCTGCACGTAGAAGCAAAAGGC [C26T T36C], the fraction ligated came to 0.00419.
The same measure for GAGACCGCAACTGAAAAGTTGTTATCAGAAATGGAAGGGTTGAATTTCTGCACGTAGAAGCAAAAGGC [T36A]: 0.0309.
The same measure for GAGACCGCAACTGAAAAGTTGTCATCAGAAATGGCTGGGTTGAATTTCTGCACGTAGAAGCAAAAGGC [T23C A35C]: 0.00513.
The value for GAGACCGCAACTGAAAAGTTGTTATCAGAAAAGGATGGGTTGGATTTCTGCACGTAGAAGCAAAAGGC [T32A A43G] was 0.0134; that for GAGACCGCAACTGAAAAGTTGTTATCTGAAATGGATGGGTTAAATTTCTGCACGTAGAAGCAAAAGGC [A27T G42A] was 0.698; that for GAGACCGCAACTGAAAAGTTGTTATCAGATATGGTTGGGTTGAATTTCTGCACGTAGAAGCAAAAGGC [A30T A35T] was 0.0204.
In the case of GAGACCGCAACTGAAAAGTTGTTAATAGAAATGGATGGGTTGAATTTCTGCACGTAGAAGCAAAAGGC [T25A C26T], the fraction ligated is 0.00642.
Regarding GAGACCGCAACTGAAAAGTTGTTAGCAGAAATGGATGGGTTAAATTTCTGCACGTAGAAGCAAAAGGC [T25G G42A], the fraction ligated is 0.00421.
The same measure for GAGACCGCAACTGAAAAGTTGTGATCAGAAATGGATGGGTTGAGTTTCTGCACGTAGAAGCAAAAGGC [T23G A44G]: 0.764; for GAGACCGCAACTGAAAAGTTGTTAGCGGAAATGGATGGGTTGAATTTCTGCACGTAGAAGCAAAAGGC [T25G A27G]: 0.0208.
The value for GAGACCGCAACTGAAAAGTTGTTATCAGGAATGGATGGGTTGCATTTCTGCACGTAGAAGCAAAAGGC [A29G A43C] was 0.0987.
With GAGACCGCAACTGAAAAGTTGTTGTCAGAAATGGACGGGTTGAATTTCTGCACGTAGAAGCAAAAGGC [A24G T36C], the fraction ligated came out at 0.0933.
The value for GAGACCGCAACTGAAAAGTTGTTATCTGACATGGATGGGTTGAATTTCTGCACGTAGAAGCAAAAGGC [A27T A30C] was 0.822; that for GAGACCGCAACTGAAAAGTTGTTATCAGACATGTATGGGTTGAATTTCTGCACGTAGAAGCAAAAGGC [A30C G34T] was 0.00409.
The value for GAGACCGCAACTGAAAAGTTGTTATCCGAAATGGATGGGTTTAATTTCTGCACGTAGAAGCAAAAGGC [A27C G42T] was 0.0494; that for GAGACCGCAACTGAAAAGTTGTTGGCAGAAATGGATGGGTTGAATTTCTGCACGTAGAAGCAAAAGGC [A24G T25G] was 0.00212.
Consider GAGACCGCAACTGAAAAGTTGTTATCAGAAACGGATGGGTTAAATTTCTGCACGTAGAAGCAAAAGGC [T32C G42A], for which the fraction ligated worked out at 0.00418.
The same measure for GAGACCGCAACTGAAAAGTTGTTATCCGAAATGGATCGGTTGAATTTCTGCACGTAGAAGCAAAAGGC [A27C G37C]: 0.004; for GAGACCGCAACTGAAAAGTTGTTATCAGAACTAGATGGGTTGAATTTCTGCACGTAGAAGCAAAAGGC [A31C G33A]: 0.767.
Consider GAGACCGCAACTGAAAAGTTGTTATCACTAATGGATGGGTTGAATTTCTGCACGTAGAAGCAAAAGGC [G28C A29T], for which the fraction ligated is 0.831.
GAGACCGCAACTGAAAAGTTGTGATCAGAAATGGATAGGTTGAATTTCTGCACGTAGAAGCAAAAGGC [T23G G37A]: the fraction ligated was determined as 0.00471.
The same measure for GAGACCGCAACTGAAAAGTTGTTTTTAGAAATGGATGGGTTGAATTTCTGCACGTAGAAGCAAAAGGC [A24T C26T]: 0.0111.
The value for GAGACCGCAACTGAAAAGTTGTTATTATAAATGGATGGGTTGAATTTCTGCACGTAGAAGCAAAAGGC [C26T G28T] was 0.55; that for GAGACCGCAACTGAAAAGTTGTGATCAGGAATGGATGGGTTGAATTTCTGCACGTAGAAGCAAAAGGC [T23G A29G] was 0.813; that for GAGACCGCAACTGAAAAGTTGTTATCGGAAACGGATGGGTTGAATTTCTGCACGTAGAAGCAAAAGGC [A27G T32C] was 0.0134.
The value for GAGACCGCAACTGAAAAGTTGTTACCAGAAAAGGATGGGTTGAATTTCTGCACGTAGAAGCAAAAGGC [T25C T32A] was 0.00778; that for GAGACCGCAACTGAAAAGTTGTTATCAGAAATGGATGGGTTCCATTTCTGCACGTAGAAGCAAAAGGC [G42C A43C] was 0.00394; that for GAGACCGCAACTGAAAAGTTGTAATCAGAAATGGATAGGTTGAATTTCTGCACGTAGAAGCAAAAGGC [T23A G37A] was 0.00757.
As for GAGACCGCAACTGAAAAGTTGTTATCAGAAATGGATGGGTTTGATTTCTGCACGTAGAAGCAAAAGGC [G42T A43G], the fraction ligated turned out to be 0.115.
GAGACCGCAACTGAAAAGTTGTTATGAGAAATGGATAGGTTGAATTTCTGCACGTAGAAGCAAAAGGC [C26G G37A]: the fraction ligated was determined as 0.00254.
On to GAGACCGCAACTGAAAAGTTGTTAACAAAAATGGATGGGTTGAATTTCTGCACGTAGAAGCAAAAGGC [T25A G28A], for which the fraction ligated turned out to be 0.011.
The value for GAGACCGCAACTGAAAAGTTGTAATCAGAAATGGGTGGGTTGAATTTCTGCACGTAGAAGCAAAAGGC [T23A A35G] was 0.0122.
